In patent US20250000991A1, “NECTIN-4 ANTIBODIES AND ANTIBODY-DRUG CONJUGATES” (Eli Lilly and Company, priority 2023, published 2025):

Tests used:
[1] = target: human Nectin-4-eGFP on T24 cells (clone 3) (human) (UniProt Q96NY8); assay: cell-based or functional assay
[2] = target: human nectin-4 on cells (human) (UniProt Q96NY8); assay: cell-based or functional assay

% activity (max GFP signal loss compared to enfortumab mAb (100%)) [1]: 120%
EC50 (nM) of nectin-4-eGFP signal loss [1]: 2.55 nM
B1: enfortumab ADC (enfortumab conjugated as in Formula XI, DAR of 8) (antibody, INN chains, looked up, V domains shown)
VH: EVQLVESGGGLVQPGGSLRLSCAASGFTFSSYNMNWVRQAPGKGLEWVSYISSSSSTIYYADSVKGRFTISRDNAKNSLSLQMNSLRDEDTAVYYCARAYYYGMDVWGQGTTVTVSS
VL: DIQMTQSPSSVSASVGDRVTITCRASQGISGWLAWYQQKPGKAPKFLIYAASTLQSGVPSRFSGSGSGTDFTLTISSLQPEDFATYYCQQANSFPPTFGGGTKVEIKR
modifications: drug conjugate Formula XI, DAR 8
Cytotoxicity IC50, NCI H1781 cells [2]: 0.0409 nM
Cytotoxicity IC50, T24 Nectin-4 clone 108 cells [2]: 0.0747 nM
